Data: PMC2794548, “Real-Time Imaging and Quantification of Amyloid-β Peptide Aggregates by Novel Quantum-Dot Nanoprobes” (PLoS ONE, 2009)

How the values were obtained:
[1] = Kinetic analysis of Aβ40 and Aβ42 aggregations by SDS-PAGE; assay type: physicochemical, Human; details: 50 µM peptide in PBS without SDS, 37°C
Method: These Aβ solutions were diluted at 50 µM in PBS with or without 1 mM SDS, and 5 µl of aliquots were incubated for various time periods at 37°C. The samples were mixed with sample buffer (final concentration: 50 mM Tris-HCl (pH 6.8), 2% SDS, 0.1% bromophenol blue, and 10% glycerol) and immediately electrophoresed using 16.5% Tris-Tricine gels or 16% Tris-Glycine gels. These gels were stained with Coomassie brilliant blue.
After the incubation, these samples were electrophoresed using 16.5% Tris-Tricine (a and c) and 16% Tris-Glycine gels (b and d). […] [1] Schagger H (2006) Tricine-SDS-PAGE. Nat Protoc 1: 16–22. Laemmli UK (1970) Cleavage of structural proteins during the assembly of the head of bacteriophage T4. Nature 227: 680–685. (1.27 MB TIF) Click here for additional data file.

Aβ42 = Aβ42 (Homo sapiens, UniProt P05067); experiment: Imaging of fibril formation: coaggregation of QDAβ with intact Aβ42, wide-field fluorescence microscopy; assay type: physicochemical; details: 0.1% QDAβ(6)-containing 50 µM Aβ42, 1 day on ice
Sequence of Aβ42 (P05067 672-713 limits assumed): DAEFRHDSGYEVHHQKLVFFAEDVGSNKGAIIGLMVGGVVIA
Text: (b) Fluorescence intensities of the aggregates in (a). Fluorescence intensities measured from 20 randomly selected fields (100×100 pixel: 8.6×8.6 μm) containing the aggregates are shown as relative % intensity against QDAβ(6) group. *** denotes P<0.001 for QDAβ (6)- versus QDAβ (1)- or QDAβ (0)-samples and ## denotes 0.001<P<0.01 for QDAβ (1)- versus QDAβ (0) samples. Error bars indicate SD (n = 20). […], spread between glass slides and cover slips, and observed by regular microscopy using a 100x objective lens with QD filter set (left micrograph) and […] (right three micrographs). […] The right three micrographs are magnified and brightened micrographs. The top right micrograph is the boxed area in the left micrograph. […] To remove any aggregates, the mixtures were centrifuged at 10,000×g for 1 min at 4°C. The mixtures (50 μl) were put in microcentrifuge tubes or 96-well glass bottom plates (MatTek). […] Supplementary file pone.0008492.s006.tif: Figure S4 Dose- and time-dependent coaggregation. […] (7.12 MB TIF) Click here for additional data file. Supplementary file pone.0008492.s007.tif: Figure S5 Temperature-dependent Aβ aggregation. […] (1.67 MB TIF) Click here for additional data file.

[2] = 4D imaging of Aβ aggregation by swept-field confocal microscopy; assay type: physicochemical, Human
Method: (a) 4D imaging of Aβ aggregation. […] (b) Time-course of Aβ aggregation. The volumes of Aβ aggregates measured from three 4D experiments (red, blue, and green). The total volume of the observed space is 1.9×10^6 µm^3 (138×138×100 µm).
To remove any aggregates, the mixtures were centrifuged at 10,000×g for 1 min at 4°C. The mixtures (50 µl) were put in microcentrifuge tubes or 96-well glass bottom plates (MatTek). The samples in microcentrifuge tubes were incubated for various time periods at 37°C in an air incubator, and observed by wide-field fluorescence microscopy or electron microscopy. The samples in 96-well glass bottom plates were incubated at 37°C in 5% CO2 in a culture chamber (LiveCell™, Pathology Devices), and directly observed by wide-field fluorescence microscopy or swept-field laser-scanning confocal microscopy [QDAβ: Excitation: 488 nm at 15% power; Emission filter: Chroma Quad Filter (#C68208) for FITC].
QD was excited by an argon laser, and Lysotracker and Mitotracker were excited by an argon/krypton laser.

[3] = 10–35 µM Aβ42 in phosphate buffer (pH 7.5 or pH 7.4); cited from earlier work
[4] = 0.1% QDAβ(6)-containing 100 µM Aβ42, 37°C, imaged every 30 min over 20 h, three 4D experiments

| Substance | oligomer formation after 5 days ([1]; SDS-PAGE (Fig. S1c, d)) | time to formation of trimeric and tetrameric species from the start of incubation ([1]; SDS-PAGE, Coomassie (Fig. S1a)) | aggregation after incubation on ice (Aβ42) | lag time of aggregation [2, 4] | time at which aggregation reached a plateau [2, 4] | density of stacked-Aβ aggregates on the glass bottom in a steady state ([2]; estimated from 4D imaging data, 100 µM Aβ42 with 0.1% QDAβ(6)) | lag time of ThT binding [3] | time at which ThT binding reached a plateau [3] |
| --- | --- | --- | --- | --- | --- | --- | --- | --- |
| Aβ40: Human amyloid peptide Aβ40 (Biosource) | did not form oligomers | – | – | – | – | – | – | – |
| Aβ42: Human amyloid peptide Aβ42 (Biosource) | – | ≤ 0.3 h | did not observe aggregation | approximately 1.5 h | around 12 h | 32 ± 6 mg/mL | several minutes | 1 to 2 h |
